From patent US20140220596A1 (MEDICINAL BIOCONVERGENCE RESEARCH CENTER, published 2014)

B1: CDH1 (Fc fusion, not shown: a dimerising Fc or GST; small tags and cut ends)
chain: DWVIPPISCPENEKGPFPKNLVQIKSNKDKEGKVFYSITGQGADTPPVGVFIIERETGWLKVTEPLDRERIATYTLFSHAVSSNGNAVEDPMEILITVTDQNDNKPEFTQEVFKGSVMEGALPGTSVMEVTATDADDDVNTYNAAIAYTILSQDPELPDKNMFTINRNTGVISVVTTGLDRESFPTYTLVVQAADLQGEGLSTTATAVITVTDTNDNPPIFNPTTYKGQVPENEANVVITTLKVTDADAPNTPAWEAVYTILNDDGGQFVVTTNPVNNDGILKTAKGLDFEAKQQYILHVAVTNVVPFEVSLTTSTATVTVDVLDVNEAPIFVPPEKRVEVSEDFGVGQEITSYTAQEPDTFMEQKITYRIWRDTANWLEINPDTGAISTRAELDREDFEHVKNSTYTALIIATDNGSPVATGTGTLLLILSDVNDNAPIPEPRTIFFCERNPKPQVINIIDADLPPNTSPFTAELTHGASANWTIQYNDPTQESIILKPKMALEVGDYKINLKLMDNQNKDQVTTLEVSVCDCEGAAGVCRKAQPVEAGLQIPA
notes: one of the remaining CDHs (group m5); also called Fc-CDH1; Fc-fused soluble cadherin-1
B2: CDH5 (Fc fusion, not shown: a dimerising Fc or GST; small tags and cut ends)
chain: DWIWNQMHIDEEKNTSLPHHVGKIKSSVSRKNAKYLLKGEYVGKVFRVDAETGDVFAIERLDRENISEYHLTAVIVDKDTGENLETPSSFTIKVHDVNDNWPVFTHRLFNASVPESSAVGTSVISVTAVDADDPTVGDHASVMYQILKGKEYFAIDNSGRIITITKSLDREKQARYEIVVEARDAQGLRGDSGTATVLVTLQDINDNFPFFTQTKYTFVVPEDTRVGTSVGSLFVEDPDEPQNRMTKYSILRGDYQDAFTIETNPAHNEGIIKPMKPLDYEYIQQYSFIVEATDPTIDLRYMSPPAGNRAQVIINITDVDEPPIFQQPFYHFQLKENQKKPLIGTVLAMDPDAARHSIGYSIRRTSDKGQFFRVTKKGDIYNEKELDREVYPWYNLTVEAKELDSTGTPTGKESIVQVHIEVLDENDNAPEFAKPYQPKVCENAVHGQLVLQISAIDKDITPRNVKFKFILNTENNFTLTDNHDNTANITVKYGQFDREHTKVHFLPVVISDNGMPSRTGTSTLTVAVCKCNEQGEFTFCEDMAAQVGVSIQ
notes: one of the remaining CDHs (group m5); also called Fc-CDH5; Fc-fused soluble cadherin-5
B3: CDH8 (Fc fusion, not shown: a dimerising Fc or GST; small tags and cut ends)
chain: GWVWNQMFVLEEFSGPEPILVGRLHTDLDPGSKKIKYILSGDGAGTIFQINDVTGDIHAIKRLDREEKAEYTLTAQAVDWETSKPLEPPSEFIIKVQDINDNAPEFLNGPYHATVPEMSILGTSVTNVTATDADDPVYGNSAKLVYSILEGQPYFSIEPETAIIKTALPNMDREAKEEYLVVIQAKDMGGHSGGLSGTTTLTVTLTDVNDNPPKFAQSLYHFSVPEDVVLGTAIGRVKANDQDIGENAQSSYDIIDGDGTALFEITSDAQAQDGIIRLRKPLDFETKKSYTLKVEAANVHIDPRFSGRGPFKDTATVKIVVEDADEPPVFSSPTYLLEVHENAALNSVIGQVTARDPDITSSPIRFSIDRHTDLERQFNINADDGKITLATPLDRELSVWHNITIIATEIRNHSQISRVPVAIKVLDVNDNAPEFASEYEAFLCENGKPGQVIQTVSAMDKDDPKNGHYFLYSLLPEMVNNPNFTIKKNEDNSLSILAKHNGFNRQKQEVYLLPIIISDSGNPPLSSTSTLTIRVCGCSNDGVVQSCNVEAYVLPIGLSM
notes: one of the remaining CDHs (group m5); also called Fc-CDH8; Fc-fused soluble cadherin-8
B4: CDH11 (Fc fusion, not shown: a dimerising Fc or GST; small tags and cut ends)
chain: GWVWNQFFVIEEYTGPDPVLVGRLHSDIDSGDGNIKYILSGEGAGTIFVIDDKSGNIHATKTLDREERAQYTLMAQAVDRDTNRPLEPPSEFIVKVQDINDNPPEFLHETYHANVPERSNVGTSVIQVTASDADDPTYGNSAKLVYSILEGQPYFSVEAQTGIIRTALPNMDREAKEEYHVVIQAKDMGGHMGGLSGTTKVTITLTDVNDNPPKFPQSVYQMSVSEAAVPGEEVGRVKAKDPDIGENGLVTYNIVDGDGMESFEITTDYETQEGVIKLKKPVDFETKRAYSLKVEAANVHIDPKFISNGPFKDTVTVKISVEDADEPPMFLAPSYIHEVQENAAAGTVVGRVHAKDPDAANSPIRYSIDRHTDLDRFFTINPEDGFIKTTKPLDREETAWLNITVFAAEIHNRHQEAKVPVAIRVLDVNDNAPKFAAPYEGFICESDQTKPLSNQPIVTISADDKDDTANGPRFIFSLPPEIIHNPNFTVRDNRDNTAGVYARRGGFSRQKQDLYLLPIVISDGGIPPMSSTNTLTIKVCGCDVNGALLSCNAEAYILNAGLST
notes: one of the remaining CDHs (group m5); also called Fc-CDH11; Fc-fused soluble cadherin-11
B5: CDH13 (Fc fusion, not shown: a dimerising Fc or GST; small tags and cut ends)
chain: SIVVSPILIPENQRQPFPRDVGKVVDSDRPERSKFRLTGKGVDQEPKGIFRINENTGSVSVTRTLDREVIAVYQLFVETTDVNGKTLEGPVPLEVIVIDQNDNRPIFREGPYIGHVMEGSPTGTTVMRMTAFDADDPATDNALLRYNIRQQTPDKPSPNMFYIDPEKGDIVTVVSPALLDRETLENPKYELIIEAQDMAGLDVGLTGTATATIMIDDKNDHSPKFTKKEFQATVEEGAVGVIVNLTVEDKDDPTTGAWRAAYTIINGNPGQSFEIHTNPQTNEGMLSVVKPLDYEISAFHTLLIKVENEDPLVPDVSYGPSSTATVHITVLDVNEGPVFYPDPMMVTRQEDLSVGSVLLTVNATDPDSLQHQTIRYSVYKDPAGWLNINPINGTVDTTAVLDRESPFVDNSVYTALFLAIDSGNPPATGTGTLLITLEDVNDNAPFIYPTVAEVCDDAKNLSVVILGASDKDLHPNTDPFKFEIHKQAVPDKVWKISKINNTHALVSLLQNLNKANYNLPIMVTDSGKPPMTNITDLRVQVCSCRNSKVDCNAAG
notes: one of the remaining CDHs (group m5); also called Fc-CDH13; Fc-fused soluble cadherin-13
B6: CDH16 (Fc fusion, not shown: a dimerising Fc or GST; small tags and cut ends)
chain: KAQPAELSVEVPENYGGNFPLYLTKLPLPREGAEGQIVLSGDSGKATEGPFAMDPDSGFLLVTRALDREEQAEYQLQVTLEMQDGHVLWGPQPVLVHVKDENDQVPHFSQAIYRARLSRGTRPGIPFLFLEASDRDEPGTANSDLRFHILSQAPAQPSPDMFQLEPRLGALALSPKGSTSLDHALERTYQLLVQVKDMGDQASGHQATATVEVSIIESTWVSLEPIHLAENLKVLYPHHMAQVHWSGGDVHYHLESHPPGPFEVNAEGNLYVTRELDREAQAEYLLQVRAQNSHGEDYAAPLELHVLVMDENDNVPICPPRDPTVSIPELSPPGTEVTRLSAEDADAPGSPNSHVVYQLLSPEPEDGVEGRAFQVDPTSGSVTLGVLPLRAGQNILLLVLAMDLAGAEGGFSSTCEVEVAVTDINDHAPEFITSQIGPISLPEDVEPGTLVAMLTAIDADLEPAFRLMDFAIERGDTEGTFGLDWEPDSGHVRLRLCKNLSYEAAPSHEVVVVVQSVAKLVGPGPGPGATATVTVLVERVMPPPKLDQESYEASVPISAPAGSFLLTIQPSDPISRTLRFSLVNDSEGWLCIEKFSGEVHTAQSLQGAQPGDTYTVLVEAQDTDEPRLSASAPLVIHFLKAPPAPALTLAPVPSQYLCTPRQDHGLIVSGPSKDPDLASGHGPYSFTLGPNPTVQRDWRLQTLNGSHAYLTLALHWVEPREHIIPVVVSHNAQMWQLLVRVIVCRCNVEGQCMRKVGRMKGMPTKLSA
notes: one of the remaining CDHs (group m5); also called Fc-CDH16; Fc-fused soluble cadherin-16
B7: CDH20 (Fc fusion, not shown: a dimerising Fc or GST; small tags and cut ends)
chain: SWVWNQFFVLEEYTGTDPLYVGKLHSDMDRGDGSIKYILSGEGAGIVFTIDDTTGDIHAIQRLDREERAQYTLRAQALDRRTGRPMEPESEFIIKIQDINDNEPKFLDGPYVATVPEMSPVGTSVIQVTATDADDPTYGNSARVVYSILQGQPYFSVDSKTGVIRTALMNMDREAKEYYEVIIQAKDMGGQLGGLAGTTTVNITLSDVNDNPPRFPQKHYQMSVLESAPISSTVGRVFAKDLDEGINAEMKYTIVDGDGADAFDISTDPNFQVGIITVKKPLSFESKKSYTLKVEGANPHLEMRFLNLGPFQDTTTVHISVEDVDEPPVFEPGFYFVEVPEDVAIGTTIQIISAKDPDVTNNSIRYSIDRSSDPGRFFYVDITTGALMTARPLDREEFSWHNITVLAMEMNNPSQVGSVPVTIKVLDVNDNAPEFPRFYEAFVCENAKAGQLIQTVSAVDQDDPRNGQHFYYSLAPEAANNPNFTIRDNQDNTARILTRRSGFRQQEQSVFHLPILIADSGQPVLSSTGTLTIQVCSCDDDGHVMSCSPEAYMLPVSLSR
notes: one of the remaining CDHs (group m5); also called Fc-CDH20; Fc-fused soluble cadherin-20

What follows are binders tested against T1, His-tagged recombinant human glycyl-tRNA synthetase (GRS), 685 amino acids (human, UniProt P41250 55-739) (assay: ELISA: plate coated with His-GRS or BSA, Fc-fused cadherin added, detected with anti-human IgG1 Fc-HRP; axis OD 490nm).
T1 construct: Expressed in E. coli; also called His-GRS; his-tagged GRS; not shown: His tag from vector pET-28a (EcoRI/XhoI)
T1 sequence: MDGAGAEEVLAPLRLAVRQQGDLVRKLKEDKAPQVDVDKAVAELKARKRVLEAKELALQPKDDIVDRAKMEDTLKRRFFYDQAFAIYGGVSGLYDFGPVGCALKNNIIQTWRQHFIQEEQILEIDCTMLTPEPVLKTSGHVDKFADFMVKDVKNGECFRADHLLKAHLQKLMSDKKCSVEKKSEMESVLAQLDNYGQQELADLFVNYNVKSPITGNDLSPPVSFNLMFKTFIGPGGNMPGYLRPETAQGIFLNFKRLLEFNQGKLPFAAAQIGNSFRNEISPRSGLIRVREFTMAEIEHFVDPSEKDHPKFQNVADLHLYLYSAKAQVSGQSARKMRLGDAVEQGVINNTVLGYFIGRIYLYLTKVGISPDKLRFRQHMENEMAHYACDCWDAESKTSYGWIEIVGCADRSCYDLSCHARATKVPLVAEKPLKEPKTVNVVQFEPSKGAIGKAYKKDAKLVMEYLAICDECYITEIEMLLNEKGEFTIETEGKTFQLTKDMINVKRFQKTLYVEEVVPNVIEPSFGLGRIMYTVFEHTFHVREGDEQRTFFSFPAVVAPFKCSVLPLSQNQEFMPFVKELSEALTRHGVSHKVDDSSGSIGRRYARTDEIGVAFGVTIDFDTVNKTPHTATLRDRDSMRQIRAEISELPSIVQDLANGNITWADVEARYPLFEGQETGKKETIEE
Description: (A) A panel of Fc-fused soluble cadherin family proteins was bound to His-tagged GRS or to BSA-coated plates, and complexes were detected with the IgG1 Fc-HRP (Thermo) reagent. (B) To confirm the binding between cadherins and GRS, Fc-CDH2, 6 and 18 were incubated with His-GRS. Fc-CDHs were precipitated with protein A/G agarose and co-precipitated GRS was determined by immunoblotting. (C) To calculate the equilibrium dissociation constant (IQ), immobilized Fc-fused (to gold chips) cadherins were incubated with GRS (31.25 nM˜1 uM). Binding of GRS to CDH6 was determined by surface plasmon resonance and expressed as resonance units (RU). (D) To confirm the binding between CDH6 and GRS domain peptides, Fc-CDH6 was incubated with different domains (F1, 2, 3 and 4) of GRS that were expressed as the GST fusion proteins. GST-GRS proteins were precipitated with GSH-sepharose beads and co-precipitated CDH6 was determined by immunoblotting. (E) Five difference cancers cells were determined for the expression of CDH6 by immunoblotting. (F) HCT116 cells were transfected with non-specific siRNA controls (si-con) or two differently designed siRNAs targeting CDH6 (#1 and #2), treated with biotinylated GRS (15 nM), and the binding of GRS was analyzed by immunoblotting. (G) HCT116 cells were transfected with si-con and si-CDH6 as described above, and cell binding of GRS was measured by FACS analysis. (H) HCT116 cells were incubated with His-GRS (150 nM). To neutralize the effects of GRS, Fc-fused CDH6 (300 nM) was added and the cell viability was determined by the MTT assay. Error bars represent standard deviation. (I) The binding between CDH6 and GRS domain peptides was again confirmed by ELISA assay.
To identifying the receptor of GRS, a Maxisorp plate (Nunc, Rochester, N.Y.) was used for an ELISA detection. The plate were coated with purified his-tagged GRS (1 ug/ml) or BSA (1 ug/ml) in phosphate buffer saline and then blocked (PBS, 4% non-fat milk). Fc-fusion cadherin family proteins (1 ug/ml) were added to the plate and after washing with PBST (0.05% Tween20), the plates were incubated with anti-human IgG1 Fc-HRP (Thermo, Waltham, Mass.). […]
B1: no binding (tested: 1 ug/ml (single concentration)).
B2: no binding (tested: 1 ug/ml (single concentration)).
B3: no binding (tested: 1 ug/ml (single concentration)).
B4: no binding (tested: 1 ug/ml (single concentration)).
B5: no binding (tested: 1 ug/ml (single concentration)).
B6: no binding (tested: 1 ug/ml (single concentration)).
B7: no binding (tested: 1 ug/ml (single concentration)).
